Consider one molecule from article PMC1919486.

In the data set the target is T1, hSMUG1 WT (Homo sapiens, UniProt Q53HV7 1-270).
T1 sequence: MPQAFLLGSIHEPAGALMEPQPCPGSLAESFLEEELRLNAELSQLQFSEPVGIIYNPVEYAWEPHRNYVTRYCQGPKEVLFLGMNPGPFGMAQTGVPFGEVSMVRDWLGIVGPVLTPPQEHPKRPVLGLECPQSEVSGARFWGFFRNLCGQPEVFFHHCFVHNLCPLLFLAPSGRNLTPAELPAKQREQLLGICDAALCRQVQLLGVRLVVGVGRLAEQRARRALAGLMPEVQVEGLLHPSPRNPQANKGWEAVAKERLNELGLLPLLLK
As to the kind of experiment: EMSA. (A gel shift assay detects complexes by their altered migration in electrophoresis.)

B1: T:A (T141A) (dsDNA)
DNA 1: CATAAAGTGTAAAGCCTGG
DNA 2: CCAGGCTTTACACTTTATG
As to B1, the binding result is recorded as “no binding”.
